Columns and labels:
[1] = molecular target: biotinylated H1 (A/Solomon Islands/03/06) HA polypeptide (influenza virus A/Solomon Islands/03/06)
[2] = molecular target: HA of H1N1 influenza strain PR8 (A/Puerto Rico/8/34) (influenza virus A/Puerto Rico/8/34 …, UniProt P03452 18-565); experiment: cell-based or functional assay
BSA = molecular target: T1, BSA (Bos taurus, UniProt P02769); experiment: ELISA, KD table (Example 2)
T1 construct: also called 1% BSA

[3] = molecular target: HA polypeptide of subtype H1 (Example 1 ELISA) (influenza virus, strain ); experiment: ELISA on HA-coated plate, KD from a fit of fractional saturation (Example 2)
[4] = molecular target: HA polypeptide of subtype H3 (Example 1 ELISA) (influenza virus, strain ); experiment: as above

T1 sequence (P02769 25-607 limits assumed): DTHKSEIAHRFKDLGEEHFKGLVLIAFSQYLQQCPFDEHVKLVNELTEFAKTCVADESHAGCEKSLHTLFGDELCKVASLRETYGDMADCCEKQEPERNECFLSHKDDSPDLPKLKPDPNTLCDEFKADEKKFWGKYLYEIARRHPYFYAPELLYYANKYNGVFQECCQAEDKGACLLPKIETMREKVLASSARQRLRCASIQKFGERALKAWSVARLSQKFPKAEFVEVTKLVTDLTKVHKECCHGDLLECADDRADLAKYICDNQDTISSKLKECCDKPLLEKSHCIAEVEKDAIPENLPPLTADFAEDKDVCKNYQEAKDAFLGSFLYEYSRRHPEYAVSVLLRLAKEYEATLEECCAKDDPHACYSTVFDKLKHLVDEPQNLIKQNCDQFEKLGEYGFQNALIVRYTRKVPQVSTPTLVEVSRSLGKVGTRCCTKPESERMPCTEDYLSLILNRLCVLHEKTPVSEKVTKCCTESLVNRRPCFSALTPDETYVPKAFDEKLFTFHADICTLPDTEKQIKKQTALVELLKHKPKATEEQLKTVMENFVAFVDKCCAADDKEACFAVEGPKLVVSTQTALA

B1: exemplary antibody (VH-1 combined with VL-1; Table 4) (antibody, V domains shown)
VH: EVQLLESGGGLVKPGQSLKLSCAASGFTFTSYGMHWVRQPPGKGLEWVAVISYDGSYKYYADSVQGRFTISRDNSKNTLYLQMNSLRAEDTAVYYCAKDSELRSLLYFEWLSQGYFNPWGAGTTLTVSS
VL: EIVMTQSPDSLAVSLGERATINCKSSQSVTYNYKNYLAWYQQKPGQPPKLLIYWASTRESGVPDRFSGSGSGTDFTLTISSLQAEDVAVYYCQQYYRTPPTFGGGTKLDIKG
notes: also called exemplary influenza antibody
kon [1]: 297000 M⁻¹ s⁻¹ | IC50, microneutralization assay followed by qPCR of viral yield in MDCK cells [2]: 0.5 µg/mL | binding result (BSA): no binding | Kd [3]: 0.074 nM | Kd [4]: 37.2 nM

Source: patent US20130302348A1 (MIT, published 2013)
